T1: hGH binding protein provided by the kit (Active Bioactive Human Growth Hormone ELISA DSL-10-11100, Diagnostic … (UniProt P10912 19-256))
T1 sequence (looked up): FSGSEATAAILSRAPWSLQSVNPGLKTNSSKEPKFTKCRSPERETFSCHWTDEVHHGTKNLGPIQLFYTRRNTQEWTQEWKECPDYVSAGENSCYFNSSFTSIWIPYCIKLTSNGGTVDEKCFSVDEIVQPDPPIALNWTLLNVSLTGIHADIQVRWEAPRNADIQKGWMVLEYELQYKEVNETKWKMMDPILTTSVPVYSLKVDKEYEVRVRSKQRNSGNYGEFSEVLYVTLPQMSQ

B1: RX3 protein without a fusion partner (other)
chain: THTSGGCGCQPPPPVHLPPPVHLPPPVHLPPPVHLPPPVHLPPPVHLPPPVHVPPPVHLPPPPCHYPTQPPRPQPHPQPHPCPCQQPHPSPCQY
notes: also called control RX3 RPBLA preparations; isolated RX3 protein

Key:
[1] = biological target: human EGF receptor on MDA-MB231 breast cancer cells (human) (UniProt P00533); assay: cell-based or functional assay
[2] = biological target: T1, hGH binding protein provided by the kit …; assay: bioactivity ELISA based on binding to the kit's hGH binding protein (DSL-10-11100)

Row | Molecule | % proliferation with respect to Deprived cells (Mean), radioactive thymidine incorporation, 1.2 ng/mL [1] [%] | binding result [2]
1 | RX3-EGF fusion protein | 146 | 
2 | B1 |  | no binding

Source: patent US20070243198A1 (ERA BIOTECH S A, published 2007)
